Measured values reported in PMC10372576 (Proceedings of the National Academy of Sciences of the …, 2023).

Molecular target: T1, S.c. Mon1–Ccz1 complex (wild type) (Saccharomyces cerevisiae, UniProt P53129;P38273)
T1 sequence 1: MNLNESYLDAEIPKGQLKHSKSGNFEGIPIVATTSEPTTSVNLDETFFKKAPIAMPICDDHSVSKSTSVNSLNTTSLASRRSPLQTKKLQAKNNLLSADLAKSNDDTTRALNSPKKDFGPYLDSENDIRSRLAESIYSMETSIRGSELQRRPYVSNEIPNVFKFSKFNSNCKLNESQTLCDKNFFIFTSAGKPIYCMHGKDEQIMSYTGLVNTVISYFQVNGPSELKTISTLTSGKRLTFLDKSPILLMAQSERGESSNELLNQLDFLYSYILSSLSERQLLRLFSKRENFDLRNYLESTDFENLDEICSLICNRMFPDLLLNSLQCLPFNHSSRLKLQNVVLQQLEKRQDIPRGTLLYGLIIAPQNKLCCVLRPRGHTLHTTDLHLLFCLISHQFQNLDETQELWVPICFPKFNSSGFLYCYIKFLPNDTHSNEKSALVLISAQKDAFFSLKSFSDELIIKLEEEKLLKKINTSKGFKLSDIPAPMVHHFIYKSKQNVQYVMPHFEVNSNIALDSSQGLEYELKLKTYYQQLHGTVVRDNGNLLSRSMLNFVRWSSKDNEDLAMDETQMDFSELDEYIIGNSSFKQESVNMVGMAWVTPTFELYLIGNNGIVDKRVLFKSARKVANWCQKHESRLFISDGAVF
T1 sequence 2: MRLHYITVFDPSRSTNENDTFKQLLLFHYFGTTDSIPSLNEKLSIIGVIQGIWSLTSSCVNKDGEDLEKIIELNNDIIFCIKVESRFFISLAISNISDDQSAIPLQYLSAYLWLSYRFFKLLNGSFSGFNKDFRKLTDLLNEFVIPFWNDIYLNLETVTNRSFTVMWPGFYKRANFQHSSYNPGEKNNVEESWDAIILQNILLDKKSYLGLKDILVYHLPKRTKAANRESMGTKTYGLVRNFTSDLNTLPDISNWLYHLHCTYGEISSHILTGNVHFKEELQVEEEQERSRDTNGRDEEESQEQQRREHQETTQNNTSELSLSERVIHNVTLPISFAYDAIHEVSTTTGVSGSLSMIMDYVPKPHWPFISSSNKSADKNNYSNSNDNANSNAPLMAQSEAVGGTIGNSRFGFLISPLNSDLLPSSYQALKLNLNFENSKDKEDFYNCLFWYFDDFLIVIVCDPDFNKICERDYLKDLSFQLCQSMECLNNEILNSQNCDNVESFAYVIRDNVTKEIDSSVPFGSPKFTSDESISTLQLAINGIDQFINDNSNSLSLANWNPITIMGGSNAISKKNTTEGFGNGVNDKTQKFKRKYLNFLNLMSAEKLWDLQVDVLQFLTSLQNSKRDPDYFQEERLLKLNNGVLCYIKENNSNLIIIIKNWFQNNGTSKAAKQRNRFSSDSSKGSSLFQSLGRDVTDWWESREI
Assay: pull-down

binding result: binds
B1: GST-Ypt10 (natural protein)
chain: MEATIKVVLLGDSSVGKTSIVTRLKSGKFLAKHAATIGAAFITKTIEVPSNDSSTEKRIHMEIWDTAGQERYKSLVPMYYRDANIALIVFELGDVSSLQCAKTWFQDLQDRAQGTQVIIVGNKYDLVCEEHSGEVTIPAELQGLPYVAVSAKTGYNFDTLNKIIISLVPESQFKTLSKNNEQGNILEINKKKSGSGCIC
